The target of test [1] is biotinylated HLA-A2-AviTag/MelanApeptide/β2 microglobulin complex. Nature of the test: flow cytometry of streptavidin M280 beads coated with the biotinylated complex (saturating, 2 µg), stained with FITC anti-HLA ABC. In general terms: In flow cytometry, cells or beads pass a laser one at a time.
For test [2] the target is unchanged. As to the kind of experiment: flow cytometry of streptavidin M280 beads coated with 0.015 µg of the biotinylated complex, stained with FITC anti-HLA ABC.
Test [3] shares this target. As to the kind of experiment: flow cytometry of streptavidin M280 beads saturated with the biotinylated complex, stained with anti-HLA-ABC, legend of FIG. 4.

For “streptavidin on M280 beads (Dynal) (from UniProt P22629 37-163)”, the MFI in test [1] stood at 300 MFI; in test [2], 24.5 MFI; in test [3], 305 MFI.

(Values after patent publication US20100197009A1.)
